According to patent US20150010572A1 (SAMSUNG ELECTRONICS, published 2015):

Legend:
[1] = biological target: T1, mutant Ang-2 protein, S417 substituted with alanine (FLAG-tagged at N-terminal) (human, UniProt O15123 281-496, limits assumed); experiment: ELISA, antibody coated, 250 ng FLAG-tagged mutant Ang-2, anti-FLAG-HRP, OD450 relative to native Ang-2
T1 chain: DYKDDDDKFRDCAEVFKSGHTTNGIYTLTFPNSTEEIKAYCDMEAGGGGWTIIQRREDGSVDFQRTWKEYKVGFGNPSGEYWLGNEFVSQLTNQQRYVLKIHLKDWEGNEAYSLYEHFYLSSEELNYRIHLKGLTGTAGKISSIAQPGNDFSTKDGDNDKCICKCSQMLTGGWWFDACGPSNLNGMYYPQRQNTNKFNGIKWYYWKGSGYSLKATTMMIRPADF
Method: (§1) Each well of a 96-well MaxiSorp™ flat-bottom plate (Nunc) was coated with 50 ul (microliter) of 1000 nM antibodies (Example 2). Then, the plate was washed five times with a 0.05% (v/v) Tween-20 containing PBS (PBST) and blocked with a 1% (v/v) BSA containing PBS at a room temperature for 2 hours. 250 ng of each mutant Ang-2 protein obtained by substituting S417, Q418, P419, N421, 1434, D448, A449, P452, Y460, N467, K468, or F469 residue of Ang-2 protein tagged with a FLAG sequence ([…], Sigma) at its N-terminal with alanine was added to each well of the plate, which was then allowed to react at a room temperature for 2 hours.
(§2) The plate was washed five times with a 0.05% (v/v) Tween-20 containing PBS, reacted with an anti-FLAG antibody (SIGMA) conjugated with HRP which was diluted in a 1% (v/v) BSA containing PBS at a ratio of 1:5,000 (v/v) at a room temperature for 1 hour, and washed five times with a 0.1% (v/v) Tween-20 containing PBS.
(§3) Finally, 50 ul of TMB substrates (Cell signaling) was added to each well of the plate to induce color development reaction at a room temperature for 3 min. and the reaction was ceased by the addition of 50 ul of Stop solution (Cell signaling) and then, OD450 values were measured on a plate reader (Molecular Devices). By comparing binding affinities with mutated Ang-2 to those of unmutated Ang-2, each epitope of Ang-2 antibodies was identified. The thus obtained measurement results of the binding affinities (%) of mutant Ang-2 against the binding affinity of the native Ang-2 are shown in the following Table 9.

[2] = biological target: T2, mutant Ang-2 protein, P419 substituted with alanine (FLAG-tagged at N-terminal) (human, UniProt O15123 281-496, limits assumed); experiment: as above
T2 chain: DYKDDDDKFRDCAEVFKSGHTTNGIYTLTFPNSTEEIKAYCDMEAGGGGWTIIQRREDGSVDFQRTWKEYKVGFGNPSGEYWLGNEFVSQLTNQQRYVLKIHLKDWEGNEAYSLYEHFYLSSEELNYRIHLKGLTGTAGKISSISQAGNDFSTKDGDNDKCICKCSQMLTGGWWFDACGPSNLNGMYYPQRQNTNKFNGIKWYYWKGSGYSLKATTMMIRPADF
Method: as §1, §2, §3

B1: SAIT-Ang-2-AB-m8B3 (antibody, V domains shown)
VH: DVQLQESGPGLVKPSQSLSLSCTVTGYSIASDYAWNWIRQFPGNKVEWMGYINYRGNTDYNPSLKSRSSINRDTSKNQFFLQLNSVTTGDTATYYCARGNFEGAMDYWGQGTSVTVSS
VL: TIVMTQTPKFLLVSAGDRITITCKASQSVSNDVAWYQQKPGQSPKLLIYYASNRYPGVPDRFTGSGYGTDFTFTISTVQAEDLAVYFCQQDYTSPWTFGGGTELEIK
notes: also called KCLRF-BP-00293
% at RBD binding (mutant Ang-2 against native Ang-2) [1]: 95.4%
% at RBD binding (mutant Ang-2 against native Ang-2) [2]: 8.7%

B2: SAIT-Ang-2-AB-m2E7 (antibody, V domains shown)
VH: DLQLQESGPGLVKPSQSLSLTCTVTGYSITSDYAWNWIRQFPGNKLEWMGYISYSGSTSYNPSLKSRISITRDTSKNQFFLQLNSLTTEDTATYYCARGDYGNYVGPMDYWGQGTSVTVSS
VL: SIVMTQTPKFLLVSAGDRVTITCKASQSVSNDVAWYRQKPGQSPKLLIYYASNRYTGVPDRFTGSGYGTDFTFTISTVQAEDLAVYFCQQDYSSPLTFGARTKLELK
notes: also called KCLRF-BP-00294
% at RBD binding (mutant Ang-2 against native Ang-2) [1]: 98.3%
% at RBD binding (mutant Ang-2 against native Ang-2) [2]: 88.6%
